Measured values published in patent publication US20140051834A1, “Incretin Receptor Ligand Polypeptide Fc-Region Fusion Polypeptides And Conjugates With Altered Fc-Effector Function” (Hoffman-La Roche, Inc., priority 2012, published 2014).

Assays:
FcγRIIA-R131 (human) = FcγRIIA-R131 (human) (UniProt P12318); experiment: SPR (BIAcore T100, 25 °C); antibody immobilised, receptor as analyte, steady state fit
FcγRIIIA-V158 (human) = FcγRIIIA-V158 (human) (UniProt P08637); experiment: as above
FcγRI (human) = FcγRI (human) (UniProt P12314); experiment: SPR (BIAcore T100, 25 °C); FcγRI captured by pentaHis antibody, antibody as analyte
FcγRI (human), sequence (P12314 16-288 limits assumed): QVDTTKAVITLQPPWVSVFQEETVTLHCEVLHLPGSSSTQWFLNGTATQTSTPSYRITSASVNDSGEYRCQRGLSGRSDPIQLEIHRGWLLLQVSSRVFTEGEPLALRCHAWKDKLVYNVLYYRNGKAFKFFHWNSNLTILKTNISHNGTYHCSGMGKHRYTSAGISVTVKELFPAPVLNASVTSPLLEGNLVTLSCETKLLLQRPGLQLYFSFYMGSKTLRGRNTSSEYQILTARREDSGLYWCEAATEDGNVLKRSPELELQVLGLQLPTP

FcγRIIA-R131 (human), sequence (P12318 36-218 H167R limits assumed): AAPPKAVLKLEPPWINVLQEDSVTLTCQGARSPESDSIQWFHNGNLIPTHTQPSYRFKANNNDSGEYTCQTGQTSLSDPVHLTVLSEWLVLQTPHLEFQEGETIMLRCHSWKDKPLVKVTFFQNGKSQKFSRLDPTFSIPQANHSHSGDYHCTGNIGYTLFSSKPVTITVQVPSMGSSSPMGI
IgG4 SPLE (antibody of Tables 1a and 1b, specificity not named), sequence (Fc): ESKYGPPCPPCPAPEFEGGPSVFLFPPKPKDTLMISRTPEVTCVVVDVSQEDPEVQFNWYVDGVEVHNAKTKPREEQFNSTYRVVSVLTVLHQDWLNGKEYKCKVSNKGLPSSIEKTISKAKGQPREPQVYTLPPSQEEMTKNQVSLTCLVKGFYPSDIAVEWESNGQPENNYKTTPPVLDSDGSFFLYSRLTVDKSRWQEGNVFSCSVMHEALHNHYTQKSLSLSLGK
FcγRIIIA-V158 (human), sequence (P08637 17-208 F176V limits assumed): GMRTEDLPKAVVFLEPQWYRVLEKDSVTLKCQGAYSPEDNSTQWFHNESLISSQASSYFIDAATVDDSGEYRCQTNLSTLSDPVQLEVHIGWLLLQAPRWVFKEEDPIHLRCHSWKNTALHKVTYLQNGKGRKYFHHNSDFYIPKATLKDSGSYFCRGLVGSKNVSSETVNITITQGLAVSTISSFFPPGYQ

| Substance | Kd (FcγRIIA-R131 (human)) [nM] | Kd (FcγRIIIA-V158 (human)) [nM] | Kd (FcγRI (human)) [nM] |
| --- | --- | --- | --- |
| IgG1 P329G ge (antibody of Table 1a, specificity not named) |  |  | 10 |
| IgG4 SPLE (antibody of Tables 1a and 1b, specificity not named) | 10000 |  |  |

Further substances by falling Kd (FcγRI (human)), results first:

| Kd (FcγRIIA-R131 (human)) [nM] | Kd (FcγRIIIA-V158 (human)) [nM] | Kd (FcγRI (human)) [nM] | Substance |
| --- | --- | --- | --- |
| 4400 | 1800 | 8 | IgG1 P329A ge (antibody of Table 1a, specificity not named) |
|  |  | 6 | IgG1 P329G (antibody of Tables 1a and 1b, specificity not named) |
|  |  | 5.7 | anti-CD20 antibody IgG1 P329G |
